Assay results published in patent publication US20220204611A1 (Amgen, published 2022).

Legend:
[1] = biological target: T1, soluble human TREM2 protein (TREM2 ECD-huIgG1 Fc fusion protein) (human, UniProt Q9NZC2 19-174, biotinylated); assay: ELISA, hybridoma supernatant on captured biotinylated TREM2 ECD-Fc
T1 construct: also called biotinylated soluble human TREM2 protein
T1 sequence: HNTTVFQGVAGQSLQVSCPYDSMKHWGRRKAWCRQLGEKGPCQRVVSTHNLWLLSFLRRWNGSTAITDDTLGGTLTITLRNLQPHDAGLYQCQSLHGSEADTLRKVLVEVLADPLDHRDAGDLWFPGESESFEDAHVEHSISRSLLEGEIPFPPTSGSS
Procedure: Exhausted hybridoma supernatants were tested for binding to human TREM2 by ELISA. Briefly, neutravidin plates were generated by incubating a 384 well Corning Assay Plate 3702 with neutravidin (Thermo 3100B) at 10 μg/mL (40 μL/well) in 1× PBS at 4° C. overnight. The plates were washed with 1× PBS using a Biotek plate washer and then blocked with 1% milk/1× PBS (90 μL/well) at room temperature (RT) for 30 minutes. The plates were then washed again with 1× PBS using the plate washer. […] The plates were then incubated at RT for 1 hour to immobilize the TREM2 protein to the wells of the plates. Following the incubation, the plates were again washed with 1× PBS using the plate washer. 10 μL of each hybridoma supernatant to be tested and 40 μL of 1% milk/1× PBS (1:5 dilution) were added to each well of the plates and incubated at RT for 1 hour. Again, the plates were washed with 1× PBS using the plate washer. […] After the plates were washed with 1× PBS using the plate washer, 40 μL/well of TMB substrate (Neogen, lot #150114) was added to the plates and the plates were incubated at RT for 30 minutes. The reaction was quenched with 1N hydrochloric acid (40 uL/well) following the incubation period. OD readings at 450 nm were obtained with a plate reader.

[2] = biological target: T2, human TREM2 on cells (human, UniProt Q9NZC2 19-230); assay: cell-based or functional assay
T2 sequence: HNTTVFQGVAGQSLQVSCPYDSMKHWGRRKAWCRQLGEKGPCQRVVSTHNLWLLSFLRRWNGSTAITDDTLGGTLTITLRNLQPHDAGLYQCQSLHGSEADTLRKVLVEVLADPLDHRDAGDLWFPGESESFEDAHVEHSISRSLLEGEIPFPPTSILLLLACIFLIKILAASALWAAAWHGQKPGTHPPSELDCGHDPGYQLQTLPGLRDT

B1: 14C12 (antibody, human IgG2, V domains shown)
VH: EVQLVQSGAEVKKPGESLMISCKGSGYSFTSYWIGWVRQMPGKGLEWMGIIYPGDSDTRYSPSFQGQVTISADKSISTAYLQWSSLKASDTAMYFCARRRQGIWGDALDFWGQGTLVTVSS
VL: EIVMTQSPATLSVSPGERATLSCRASQSVSSNLAWFQQKPGQAPRLLIYGASTRATGIPARFSVSGSGTEFTLTISSLQSEDFAVYYCLQDNNWPPTFGPGTKVDIK
notes: human IgG2 from hybridoma
OD 450 [1]: 0.71 OD450 | pSyk EC50 [2]: 0.4 nM
